In paper PMC11574045, “A cofactor-induced repressive type of transcription factor condensation can be induced by synthetic peptides to suppress tumorigenesis” (The EMBO Journal, 2024):

B1: NRIP1 (protein, UniProt P48552 1-1158, looked up)
Nuclear receptor-interacting …: MTHGEELGSDVHQDSIVLTYLEGLLMHQAAGGSGTAVDKKSAGHNEEDQNFNISGSAFPTCQSNGPVLNTHTYQGSGMLHLKKARLLQSSEDWNAAKRKRLSDSIMNLNVKKEALLAGMVDSVPKGKQDSTLLASLLQSFSSRLQTVALSQQIRQSLKEQGYALSHDSLKVEKDLRCYGVASSHLKTLLKKSKVKDQKPDTNLPDVTKNLIRDRFAESPHHVGQSGTKVMSEPLSCAARLQAVASMVEKRASPATSPKPSVACSQLALLLSSEAHLQQYSREHALKTQNANQAASERLAAMARLQENGQKDVGSYQLPKGMSSHLNGQARTSSSKLMASKSSATVFQNPMGIIPSSPKNAGYKNSLERNNIKQAANNSLLLHLLKSQTIPKPMNGHSHSERGSIFEESSTPTTIDEYSDNNPSFTDDSSGDESSYSNCVPIDLSCKHRTEKSESDQPVSLDNFTQSLLNTWDPKVPDVDIKEDQDTSKNSKLNSHQKVTLLQLLLGHKNEENVEKNTSPQGVHNDVSKFNTQNYARTSVIESPSTNRTTPVSTPPLLTSSKAGSPINLSQHSLVIKWNSPPYVCSTQSEKLTNTASNHSMDLTKSKDPPGEKPAQNEGAQNSATFSASKLLQNLAQCGMQSSMSVEEQRPSKQLLTGNTDKPIGMIDRLNSPLLSNKTNAVEENKAFSSQPTGPEPGLSGSEIENLLERRTVLQLLLGNPNKGKSEKKEKTPLRDESTQEHSERALSEQILMVKIKSEPCDDLQIPNTNVHLSHDAKSAPFLGMAPAVQRSAPALPVSEDFKSEPVSPQDFSFSKNGLLSRLLRQNQDSYLADDSDRSHRNNEMALLESKNLCMVPKKRKLYTEPLENPFKKMKNNIVDAANNHSAPEVLYGSLLNQEELKFSRNDLEFKYPAGHGSASESEHRSWARESKSFNVLKQLLLSENCVRDLSPHRSNSVADSKKKGHKNNVTNSKPEFSISSLNGLMYSSTQPSSCMDNRTFSYPGVVKTPVSPTFPEHLGCAGSRPESGLLNGCSMPSEKGPIKWVITDAEKNEYEKDSPRLTKTNPILYYMLQKGGNSVTSRETQDKDIWREASSAESVSQVTAKEELLPTAETKASFFNLRSPYNSHMGNNASRPHSANGEVYGLLGSVLTIKKESE
B2: NR3C2 (protein, UniProt P08235 1-984, looked up)
Mineralocorticoid receptor: METKGYHSLPEGLDMERRWGQVSQAVERSSLGPTERTDENNYMEIVNVSCVSGAIPNNSTQGSSKEKQELLPCLQQDNNRPGILTSDIKTELESKELSATVAESMGLYMDSVRDADYSYEQQNQQGSMSPAKIYQNVEQLVKFYKGNGHRPSTLSCVNTPLRSFMSDSGSSVNGGVMRAVVKSPIMCHEKSPSVCSPLNMTSSVCSPAGINSVSSTTASFGSFPVHSPITQGTPLTCSPNVENRGSRSHSPAHASNVGSPLSSPLSSMKSSISSPPSHCSVKSPVSSPNNVTLRSSVSSPANINNSRCSVSSPSNTNNRSTLSSPAASTVGSICSPVNNAFSYTASGTSAGSSTLRDVVPSPDTQEKGAQEVPFPKTEEVESAISNGVTGQLNIVQYIKPEPDGAFSSSCLGGNSKINSDSSFSVPIKQESTKHSCSGTSFKGNPTVNPFPFMDGSYFSFMDDKDYYSLSGILGPPVPGFDGNCEGSGFPVGIKQEPDDGSYYPEASIPSSAIVGVNSGGQSFHYRIGAQGTISLSRSARDQSFQHLSSFPPVNTLVESWKSHGDLSSRRSDGYPVLEYIPENVSSSTLRSVSTGSSRPSKICLVCGDEASGCHYGVVTCGSCKVFFKRAVEGQHNYLCAGRNDCIIDKIRRKNCPACRLQKCLQAGMNLGARKSKKLGKLKGIHEEQPQQQQPPPPPPPPQSPEEGTTYIAPAKEPSVNTALVPQLSTISRALTPSPVMVLENIEPEIVYAGYDSSKPDTAENLLSTLNRLAGKQMIQVVKWAKVLPGFKNLPLEDQITLIQYSWMCLSSFALSWRSYKHTNSQFLYFAPDLVFNEEKMHQSAMYELCQGMHQISLQFVRLQLTFEEYTIMKVLLLLSTIPKDGLKSQAAFEEMRTNYIKELRKMVTKCPNNSGQSWQRFYQLTKLLDSMHDLVSDLLEFCFYTFRESHALKVEFPAMLVEIISDQLPKVESGNAKPLYFHRK
B3: NR5A1/FTZ-F1A (protein, UniProt P33242 1-462, looked up)
Steroidogenic factor 1: MDYSYDEDLDELCPVCGDKVSGYHYGLLTCESCKGFFKRTVQNNKHYTCTESQSCKIDKTQRKRCPFCRFQKCLTVGMRLEAVRADRMRGGRNKFGPMYKRDRALKQQKKAQIRANGFKLETGPPMGVPPPPPPPPDYMLPPSLHAPEPKALVSGPPSGPLGDFGAPSLPMAVPGPHGPLAGYLYPAFSNRTIKSEYPEPYASPPQQPGPPYSYPEPFSGGPNVPELILQLLQLEPEEDQVRARIVGCLQEPAKSRSDQPAPFSLLCRMADQTFISIVDWARRCMVFKELEVADQMTLLQNCWSELLVLDHIYRQVQYGKEDSILLVTGQEVELSTVAVQAGSLLHSLVLRAQELVLQLHALQLDRQEFVCLKFLILFSLDVKFLNNHSLVKDAQEKANAALLDYTLCHYPHCGDKFQQLLLCLVEVRALSMQAKEYLYHKHLGNEMPRNNLLIEMLQAKQT
B4: NR2C1/TR2A (protein, UniProt Q505F1 1-590, looked up)
Nuclear receptor subfamily 2 …: MATIEEIAHQIIDQQMGEIVTEQQTGQKIQIVTALDHSTQGKQFILANHEGSTPGKVFLTTPDAAGVNQLFFTSPDLSAPHLQLLTEKSPDQGPNKVFDLCVVCGDKASGRHYGAITCEGCKGFFKRSIRKNLVYSCRGSKDCVINKHHRNRCQYCRLQRCIAFGMKQDSVQCERKPIEVSREKSSNCAASTEKIYIRKDLRSPLAATPTFVTDSETARSAGLLDSGMFVNIHPSGIKTEPAMLMAPDKAESCQGDLSTLASVVTSLANLGKAKDLSHCGGDMPVVQSLRNGDTSFGAFHHDIQTNGDVSRAFDTLAKALTPGESSACQSPEEGMEGSPHLIAGEPSFVEKEGPLLSESHVAFRLTMPSPMPEYLNVHYIGESASRLLFLSMHWALSIPSFQALGQENSISLVKAYWNELFTLGLAQCWQVMNVATILATFVNCLHSSLQQDKMSPERRKSLMEHIFKLQEFCNSMVKLCIDGHEYAYLKAIVLFSPDHPGLENMELIERFQEKAYVEFQDYITRTYPDDTYRLSRLLLRLPALRLMNATITEELFFKGLIGNVRIDSVIPHILKMEPADYNSQIIGHSL
B5: NR2B3/RXRG (protein, UniProt P28705 1-463, looked up)
Retinoic acid receptor …: MYGNYSHFMKFPTGFGGSPGHTGSTSMSPSVALPTGKPMDSHPSYTDTPVSAPRTLSAVGTPLNALGSPYRVITSAMGPPSGALAAPPGINLVAPPSSQLNVVNSVSSSEDIKPLPGLPGIGNMNYPSTSPGSLVKHICAICGDRSSGKHYGVYSCEGCKGFFKRTIRKDLIYTCRDNKDCLIDKRQRNRCQYCRYQKCLVMGMKREAVQEERQRSRERAESEAECASSSHEDMPVERILEAELAVEPKTESYGDMNVENSTNDPVTNICHAADKQLFTLVEWAKRIPHFSDLTLEDQVILLRAGWNELLIASFSHRSVSVQDGILLATGLHVHRSSAHSAGVGSIFDRVLTELVSKMKDMQMDKSELGCLRAIVLFNPDAKGLSNPSEVETLREKVYATLEAYTKQKYPEQPGRFAKLLLRLPALRSIGLKCLEHLFFFKLIGDTPIDSFLMEMLETPLQIT
B6: NR1I3/CAR1 (protein, UniProt Q14994 1-352, looked up)
Nuclear receptor subfamily 1 …: MASREDELRNCVVCGDQATGYHFNALTCEGCKGFFRRTVSKSIGPTCPFAGSCEVSKTQRRHCPACRLQKCLDAGMRKDMILSAEALALRRAKQAQRRAQQTPVQLSKEQEELIRTLLGAHTRHMGTMFEQFVQFRPPAHLFIHHQPLPTLAPVLPLVTHFADINTFMVLQVIKFTKDLPVFRSLPIEDQISLLKGAAVEICHIVLNTTFCLQTQNFLCGPLRYTIEDGARVSPTVGFQVEFLELLFHFHGTLRKLQLQEPEYVLLAAMALFSPDRPGVTQRDEIDQLQEEMALTLQSYIKGQQRRPRDRFLYAKLLGLLAELRSINEAYGYQIQHIQGLSAMMPLLQEICS
B7: NR2F6 (protein, UniProt P10588 1-404, looked up)
Nuclear receptor subfamily 2 …: MAMVTGGWGGPGGDTNGVDKAGGYPRAAEDDSASPPGAASDAEPGDEERPGLQVDCVVCGDKSSGKHYGVFTCEGCKSFFKRSIRRNLSYTCRSNRDCQIDQHHRNQCQYCRLKKCFRVGMRKEAVQRGRIPHSLPGAVAASSGSPPGSALAAVASGGDLFPGQPVSELIAQLLRAEPYPAAAGRFGAGGGAAGAVLGIDNVCELAARLLFSTVEWARHAPFFPELPVADQVALLRLSWSELFVLNAAQAALPLHTAPLLAAAGLHAAPMAAERAVAFMDQVRAFQEQVDKLGRLQVDSAEYGCLKAIALFTPDACGLSDPAHVESLQEKAQVALTEYVRAQYPSQPQRFGRLLLRLPALRAVPASLISQLFFMRLVGKTPIETLIRDMLLSGSTFNWPYGSGQ
B8: ATF7 (protein, UniProt P17544 1-483, looked up)
Cyclic AMP-dependent …: MGDDRPFVCNAPGCGQRFTNEDHLAVHKHKHEMTLKFGPARTDSVIIADQTPTPTRFLKNCEEVGLFNELASSFEHEFKKAADEDEKKAAAGPLDMSLPSTPDIKIKEEEPVEVDSSPPDSPASSPCSPPLKEKEVTPKPVLISTPTPTIVRPGSLPLHLGYDPLHPTLPSPTSVITQAPPSNRQMGSPTGSLPLVMHLANGQTMPVLPGPPVQMPSVISLARPVSMVPNIPGIPGPPVNSSGSISPSGHPIPSEAKMRLKATLTHQVSSINGGCGMVVGTASTMVTARPEQSQILIQHPDAPSPAQPQVSPAQPTPSTGGRRRRTVDEDPDERRQRFLERNRAAASRCRQKRKLWVSSLEKKAEELTSQNIQLSNEVTLLRNEVAQLKQLLLAHKDCPVTALQKKTQGYLESPKESSEPTGSPAPVIQHSSATAPSNGLSVRSAAEAVATSVLTQMASQRTELSMPIQSHVIMTPQSQSAGR

Test system: HEK293FT cells transfected with TF library
Experiment: Screening of TF condensates based on fluorescent puncta
Format: cell-based
Conditions: Figure 1B numerical data; TF library screen, one value per transcriptional factor
Method in brief: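 TF plasmids (final 1.6 μg/ml) reverse-transfected with PEI (4.8 μg/ml) into HEK293FT cells; after 60 h, cells cultured ±glucose for 12 h, fixed in 4% PFA and immunostained for Flag or GAL4 tags with Alexa 488 secondaries. Puncta scored by automated imaging of 50 random fields per well.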

Row | Molecule | Z score of condensed fraction
1 | B1 | 2.676
2 | B2 | -0.7191
3 | B3 | -0.1726
4 | B4 | -0.6816
5 | B5 | -0.7251
6 | B6 | -0.6844
7 | B7 | 2.586
8 | B8 | -0.2253
